Measurements from patent US20260055172A1.

Target: human complement protein C1q (human) (UniProt P02745)
Experiment: ELISA, 10 µg/ml human C1q, detection with HRP-conjugated anti-C1q antibody, antibody concentration varied

Sequence of human complement protein C1q (human) (P02745 23-245 limits assumed, chain 1 of 3): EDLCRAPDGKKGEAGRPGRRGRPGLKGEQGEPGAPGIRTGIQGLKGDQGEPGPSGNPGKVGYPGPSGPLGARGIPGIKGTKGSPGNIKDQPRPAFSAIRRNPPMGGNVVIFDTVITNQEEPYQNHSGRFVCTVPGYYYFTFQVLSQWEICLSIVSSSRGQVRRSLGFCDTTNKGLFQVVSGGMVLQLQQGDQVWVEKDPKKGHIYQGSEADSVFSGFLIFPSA
Sequence of human complement protein C1q (human) (P02746 28-253 limits assumed, chain 2 of 3, further chain): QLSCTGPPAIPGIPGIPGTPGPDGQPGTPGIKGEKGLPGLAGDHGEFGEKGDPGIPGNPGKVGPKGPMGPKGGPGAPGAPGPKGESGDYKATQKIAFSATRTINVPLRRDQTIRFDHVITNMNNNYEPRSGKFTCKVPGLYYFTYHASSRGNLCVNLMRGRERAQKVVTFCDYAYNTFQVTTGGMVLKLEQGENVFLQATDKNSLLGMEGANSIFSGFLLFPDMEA
Sequence of human complement protein C1q (human) (P02747 29-245 limits assumed, chain 3 of 3, further chain): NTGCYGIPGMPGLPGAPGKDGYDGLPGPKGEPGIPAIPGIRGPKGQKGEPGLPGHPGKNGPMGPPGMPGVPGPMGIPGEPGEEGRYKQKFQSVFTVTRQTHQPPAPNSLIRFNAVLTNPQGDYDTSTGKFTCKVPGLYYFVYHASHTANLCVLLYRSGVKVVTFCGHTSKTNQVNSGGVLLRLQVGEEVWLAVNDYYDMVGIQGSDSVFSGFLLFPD

- EC50 (read off the curve): 2 µg/mL
Substance: Rituximab (antibody)
